Laboratory results taken from patent EP3085709A1 (Genor Biopharma Co., Ltd, dated 2016).

B1: recombinant human RANKL (soluble, Gly136-Asp317, N-terminal 10 His, expressed in CHO cells) (ligand)
chain: HHHHHHHHHHGSQHIRAEKAMVDGSWLDLAKRSKLEAQPFAHLTINATDIPSGSHKVSLSSWYHDRGWAKISNMTFSNGKLIVNQDGFYYLYANICFRHHETSGDLATEYLQLMVYVTKTSIKIPSSHTLMKGGSTKYWSGNSEFHFYSINVGGFFKLRSGEEISIEVSNPSLLDPDQDATYFGAFKVRDID

Columns and labels:
[1] = target: RANK receptor on RAW264.7 cells (mouse (RAW264.7 cells)) (UniProt O35305); assay: cell-based or functional assay
[2] = target: T1, recombinant human RANKL (soluble, Gly136-Asp317, N-terminal 10 His, expressed in CHO cells) (human) (UniProt O14788); assay: ELISA, recombinant human RANKL coated 1 µg/ml, RANK-Fc titrated
T1 sequence: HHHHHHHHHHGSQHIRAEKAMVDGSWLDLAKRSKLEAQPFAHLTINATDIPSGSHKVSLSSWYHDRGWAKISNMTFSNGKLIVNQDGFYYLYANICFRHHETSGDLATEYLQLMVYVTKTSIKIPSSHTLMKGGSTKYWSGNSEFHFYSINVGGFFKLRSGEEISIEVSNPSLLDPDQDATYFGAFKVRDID

[3] = target: commercial hRANKL standard (R & D Systems) (human) (UniProt O14788); assay: ELISA, commercial hRANKL standard coated 1 µg/ml, RANK-Fc titrated
[4] = target: T2, RANK receptor on RAW264.7 cells (mouse (RAW264.7 cells), UniProt O35305 31-625); assay: cell-based or functional assay
T2 sequence (looked up): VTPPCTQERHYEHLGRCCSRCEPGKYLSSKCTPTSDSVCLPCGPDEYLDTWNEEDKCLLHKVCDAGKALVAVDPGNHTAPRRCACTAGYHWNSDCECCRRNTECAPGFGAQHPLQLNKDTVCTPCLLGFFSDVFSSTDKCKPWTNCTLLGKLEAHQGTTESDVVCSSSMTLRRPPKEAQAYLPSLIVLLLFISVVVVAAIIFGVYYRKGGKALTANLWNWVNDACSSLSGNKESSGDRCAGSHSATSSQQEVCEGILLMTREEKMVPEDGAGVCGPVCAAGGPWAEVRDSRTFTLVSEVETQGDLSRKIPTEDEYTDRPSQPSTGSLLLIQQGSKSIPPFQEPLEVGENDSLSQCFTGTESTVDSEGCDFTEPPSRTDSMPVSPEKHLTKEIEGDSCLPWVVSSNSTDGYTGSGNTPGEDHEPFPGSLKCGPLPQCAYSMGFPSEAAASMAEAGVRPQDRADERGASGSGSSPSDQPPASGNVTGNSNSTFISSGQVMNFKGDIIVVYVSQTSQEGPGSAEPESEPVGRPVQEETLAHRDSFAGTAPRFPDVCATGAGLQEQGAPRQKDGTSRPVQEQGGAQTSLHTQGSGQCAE

[5] = target: B1; assay: ELISA, hRANKL coated, method of Example 17; antibody from CHO-S cells
[6] = target: B1; assay: cell-based or functional assay
[7] = target: B1; assay: cell-based or functional assay; remark: listed apart in the source
[8] = target: B1; assay: competitive ELISA, RANK-Fc coated, method of Example 18; antibody from CHO-S cells
[9] = target: B1; assay: competitive ELISA, RANK-Fc coated, antibody pre-incubated with 0.25 µg/ml hRANKL; Plate#02
[10] = target: B1; assay: ELISA, hRANKL coated 1 µg/ml; concentration at 50% Bmax; Plate#02
[11] = target: B1; assay: ELISA, hRANKL coated 1 µg/ml; concentration at 50% Bmax; Plate#03
[12] = target: B1; assay: competitive ELISA, RANK-Fc coated, antibody pre-incubated with 0.25 µg/ml hRANKL; third plate (printed Plate#02)
[13] = target: T1, recombinant human RANKL (soluble, Gly136-Asp317, N-terminal 10 His, expressed in CHO cells) (human); assay: ELISA, hRANKL coated 1 µg/ml, scFv supernatant, anti-c-myc detection

“commercial hRANKL standard (R & D Systems) (from UniProt O14788 140-317) (ligand)” gave an EC50 of inducing RAW264.7 cells to differentiate into osteoclasts (TRAP activity, pNPP) [1] of 35.7 ng/ml.

RANK-Fc (R & D Systems) (Fc fusion) showed an EC50 [2] of 0.0109 µg/mL and an EC50 [3] of 0.0056 µg/mL.

In the case of B1, the “EC50 of inducing RAW264.7 cells to differentiate into osteoclasts (TRAP activity, pNPP)” value [4] is reported as 113 ng/ml.

B2: G8 (antibody, human IgG2, kappa, V domains shown)
VH: QVQLVQSGAELVQPGASVKLSCKASGYTFTTYWLQWVRQTPGQGLEWMGAIYPGPGNTKYTQKFKDRVTITADTSTSTAYMQLNSLRSEDSAVYYCARRGSRRGIAYWGQGTLVTVSA
VL: NIVLTQSPASLSVSLGQRATISCRASESVDSYGRSFMHWYQQRPGQAPKLLIYLASNLESGVPARFSGSGSRTDFTLTISSVEAEDEATYYCQQDNEDPYTFGGGTKLEIKG
B2 was tested, and the EC50 [5] was 0.00405 µg/mL, the “IC50 (ng/ml) in RAW264.7 cells” value [6] was about 573 ng/mL and the “IC50 for inhibiting cell differentiation of RAW264.7” value [7] was 0.329 µg/mL. It also gave an IC50 [8] of 0.37 µg/mL, an IC50 [9] of 0.38 µg/mL and an EC50 [10] of 0.00276 µg/mL.

B3: G14 (antibody, human IgG2, kappa, V domains shown)
VH: QVQLVQSGAEVKKPGASVKVSCKASGYTFTTYWLQWVRQAPGQGLEWMGAIYPGPGNTKYTQKFKDRVTITADESTSTAYMELSSLRSEDTAVYYCARRGSRRGIAYWGQGTLVTVSA
VL: DIVMTQSPDSLAVSLGERATINCRASESVDSYGRSFMHWYQQKPGQAPRLLIYLASNLESGVPSRFSGSGSGTDFTLTINSLEAEDAATYYCQQDNEDPYTFGGGTKLEIKG
Molecule B3 has an EC50 [5] of 0.00209 µg/mL, an EC50 [11] of 0.004 µg/mL and an IC50 [12] of 0.12 µg/mL. For the same molecule, the “IC50 (ng/ml) in RAW264.7 cells” value [6] was about 517 ng/mL, the “IC50 for inhibiting cell differentiation of RAW264.7” value [7] was 0.247 µg/mL and the IC50 [8] was 0.16 µg/mL.

B4: G15 (antibody, human IgG2, kappa, V domains shown)
VH: QVQLVQSGAEVKKPGASVKVSCKASGYTFTTYWLQWVRQAPGQGLEWMGAIYPGPGNTKYTQKFKDRVTITADESTSTAYMELSSLRSEDTAVYYCARRGSRRGIAYWGQGTLVTVSA
VL: NIVLTQSPASLSVSLGQRATISCRASESVDSYGRSFMHWYQQRPGQAPRLLIYLASNLESGVPARFSGSGSRTDFTLTISSVEAEDEATYYCQQDNEDPYTFGGGTKLEIKG
notes: expressed in CHO-S cells for Embodiments 23-25
In the case of B4, the EC50 [5] is reported as 0.00356 µg/mL, the “IC50 for inhibiting cell differentiation of RAW264.7” value [7] is reported as 0.257 µg/mL and the IC50 [8] is reported as 0.25 µg/mL.

B5: G10 (antibody, human IgG2, kappa, V domains shown)
VH: QVQLVQSGAELKKPGASVKLSCKASGYTFTTYWLQWVRQAPGQGLEWMGAIYPGPGNTKYTQKFKDRFTITADTSKSTAYMQLNSLKSEDSAVYYCARRGSRRGIAYWGQGTLVTVSA
VL: NIVLTQSPASLSVSLGQRATISCRASESVDSYGRSFMHWYQQRPGQAPRLLIYLASNLESGVPARFSGSGSRTDFTLTISSVEAEDEATYYCQQDNEDPYTFGGGTKLEIKG
notes: 293F cells
For B5, the “IC50 (ng/ml) in RAW264.7 cells” value [6] was 695 ng/mL, the IC50 [9] was 0.4 µg/mL and the EC50 [10] was 0.00285 µg/mL.

B6: pFL249-H16 scFv clone (scFv, not shown: small tags and cut ends)
scFv: QVQLVQSGAELKKPGASVKLSCKASGYTFTTYWLQWVRQAPGQGLEWMGAIYPGPGNTKYTQKFKDRFTITADKSKSTAYMQLNSLKSEDSAVYYCARRGSRRGIAYWGQGTLVTVSAGGGGSGGGGSGGGGSNIVLTQSPASLAVSLGQRATISCRASESVDSYGRSFMHWYQQRPGQPPTLLIYLASNLESGVPVRFSGSGSRTDFTLTIDPVEADDAATYYCQQDNEDPYTFGGGTKLEIK
Molecule B6 has an OD450 [13] of 1.2 OD450.

B7: pFL249-H16u scFv clone (scFv, not shown: small tags and cut ends)
scFv: QVQLVQSGAELKKPGASVKLSCKASGYTFTTYWLQWVRQAPGQGLEWMGAIYPGPGNTKYTQKFKDRFTITADTSKSTAYMQLNSLKSEDSAVYYCARRGSRRGIAYWGQGTLVTVSAGGGGSGGGGSGGGGSNIVLTQSPASLAVSLGQRATISCRASESVDSYGRSFMHWYQQRPGQPPTLLIYLASNLESGVPVRFSGSGSRTDFTLTIDPVEADDAATYYCQQDNEDPYTFGGGTKLEIK
B7 was tested, and the OD450 [13] was 1.2 OD450.

B8: pFL249-H114 scFv clone (scFv, not shown: small tags and cut ends)
scFv: QVQLVQSGAELVQPGASVKLSCKASGYTFTTYWLQWVRQTPGQGLEWMGAIYPGPGNTKYTQKFKDRVTITADTSTSTAYMQLNSLRSEDSAVYYCARRGSRRGIAYWGQGTLVTVSAGGGGSGGGGSGGGGSNIVLTQSPASLAVSLGQRATISCRASESVDSYGRSFMHWYQQRPGQPPTLLIYLASNLESGVPVRFSGSGSRTDFTLTIDPVEADDAATYYCQQDNEDPYTFGGGTKLEIK
In the case of B8, the OD450 [13] is reported as 1.2 OD450.
